Three molecules from PMC10150487, “m^6A readers ECT2/ECT3/ECT4 enhance mRNA stability through direct recruitment of the poly(A) binding proteins in Arabidopsis” (Genome Biology, 2023) can be followed below.

Assay [1] has as its target T1, GST-tagged full-length ECT2 (Arabidopsis thaliana, UniProt Q9LJE5 1-667).
T1 construct: also called GST-ECT2; Evolutionarily conserved C-terminal region 2
T1 sequence (looked up): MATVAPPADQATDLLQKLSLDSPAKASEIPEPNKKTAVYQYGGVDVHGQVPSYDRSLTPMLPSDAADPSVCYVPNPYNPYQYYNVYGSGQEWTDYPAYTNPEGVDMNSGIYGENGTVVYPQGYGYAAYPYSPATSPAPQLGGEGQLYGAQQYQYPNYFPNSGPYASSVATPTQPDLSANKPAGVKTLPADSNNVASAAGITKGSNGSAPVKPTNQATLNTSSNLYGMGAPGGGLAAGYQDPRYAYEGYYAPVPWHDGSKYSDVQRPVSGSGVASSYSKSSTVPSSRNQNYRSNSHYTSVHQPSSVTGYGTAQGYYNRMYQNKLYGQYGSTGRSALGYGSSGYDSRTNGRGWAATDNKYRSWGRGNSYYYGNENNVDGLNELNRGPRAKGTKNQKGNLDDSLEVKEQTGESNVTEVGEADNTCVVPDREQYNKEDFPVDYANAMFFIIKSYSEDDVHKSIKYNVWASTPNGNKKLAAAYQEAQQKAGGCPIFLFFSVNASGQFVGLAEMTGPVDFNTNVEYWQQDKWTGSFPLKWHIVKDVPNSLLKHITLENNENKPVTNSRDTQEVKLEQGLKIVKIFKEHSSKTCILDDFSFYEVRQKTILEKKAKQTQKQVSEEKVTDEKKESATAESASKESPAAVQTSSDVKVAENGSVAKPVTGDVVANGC
In words: pull-down; GST pull-down: 100 pmol pre-cleared MBP-PAB2 or MBP-PAB4 mixed with 100 pmol GST or GST-ECT2 (full length or fragments) and glutathione magnetic agarose beads, 2 h at 4 °C, IPP buffer (150 mM NaCl, 0.1% NP-40, 10 mM Tris pH 7.4, 0.5 mM DTT); immunoblot with anti-MBP and anti-GST. The note with it: both partners purified. Background: A western blot detects proteins with antibodies after separation by electrophoresis.

Assay [2] concerns the target T1, GST-tagged full-length ECT2. Kind of assay: pull-down; GST pull-down: purified MBP-ECT3 and SUMO-ECT4 incubated with GST-ECT2 or GST alone, GST magnetic beads, immunoblot with anti-GST, anti-MBP and anti-SUMO. The note with it: both partners purified.

B1: MBP-tagged PAB2 (natural protein, Arabidopsis thaliana, UniProt P42731 1-629, looked up)
chain: MAQVQLQGQTPNGSTAAVTSAPATSGGATATQFGNTSLYVGDLDFNVTDSQLFDAFGQMGTVVTVRVCRDLVTRRSLGYGYVNFTNPQDAARAIQELNYIPLYGKPIRVMYSHRDPSVRRSGAGNIFIKNLDESIDHKALHDTFSSFGNIVSCKVAVDSSGQSKGYGFVQYANEESAQKAIEKLNGMLLNDKQVYVGPFLRRQERDSTANKTKFTNVYVKNLAESTTDDDLKNAFGEYGKITSAVVMKDGEGKSKGFGFVNFENADDAARAVESLNGHKFDDKEWYVGRAQKKSERETELRVRYEQNLKEAADKFQSSNLYVKNLDPSISDEKLKEIFSPFGTVTSSKVMRDPNGTSKGSGFVAFATPEEATEAMSQLSGKMIESKPLYVAIAQRKEDRRVRLQAQFSQVRPVAMQPSVGPRMPVYPPGGPGIGQQMFYGQAPPAMIPPQPGYGYQQQLVPGMRPGGGPVPSFFMPMVQPQQQRPGGGRRPGGIQHSQQQNPMMQQQMHPRGRMFRYPQGRGGSGDVPPYDMGNNMPLTIGALASNLSNATPEQQRTMLGEVLYPLVEQVEAESAAKVTGMLLEMDQTEVLHLLESPEALKAKVAEAMDVLRSVAAGGATEQLASLNLS
notes: also called MBP-PAB2; source: Escherichia coli BL-21 Gold, purified (amylose resin)
Regarding B1, in assay [1], the binding result is “binds”.

B2: MBP-tagged PAB4 (natural protein, Arabidopsis thaliana, UniProt O22173 1-662, looked up)
chain: MAQVQAPSSHSPPPPAVVNDGAATASATPGIGVGGGGDGVTHGALCSLYVGDLDFNVTDSQLYDYFTEVCQVVSVRVCRDAATNTSLGYGYVNYSNTDDAEKAMQKLNYSYLNGKMIRITYSSRDSSARRSGVGNLFVKNLDKSVDNKTLHEAFSGCGTIVSCKVATDHMGQSRGYGFVQFDTEDSAKNAIEKLNGKVLNDKQIFVGPFLRKEERESAADKMKFTNVYVKNLSEATTDDELKTTFGQYGSISSAVVMRDGDGKSRCFGFVNFENPEDAARAVEALNGKKFDDKEWYVGKAQKKSERELELSRRYEQGSSDGGNKFDGLNLYVKNLDDTVTDEKLRELFAEFGTITSCKVMRDPSGTSKGSGFVAFSAASEASRVLNEMNGKMVGGKPLYVALAQRKEERRAKLQAQFSQMRPAFIPGVGPRMPIFTGGAPGLGQQIFYGQGPPPIIPHQPGFGYQPQLVPGMRPAFFGGPMMQPGQQGPRPGGRRSGDGPMRHQHQQPMPYMQPQMMPRGRGYRYPSGGRNMPDGPMPGGMVPVAYDMNVMPYSQPMSAGQLATSLANATPAQQRTLLGESLYPLVDQIESEHAAKVTGMLLEMDQTEVLHLLESPEALNAKVSEALDVLRNVNQPSSQGSEGNKSGSPSDLLASLSINDHL
notes: also called MBP-PAB4; source: Escherichia coli BL-21 Gold, purified (amylose resin)
B2: the binding result in assay [1] was “binds”.

B3: maltose-binding protein (MBP)-tagged ECT3 (natural protein, Arabidopsis thaliana, UniProt F4K1Z0 1-495, looked up)
chain: MANPDHVSDVLHNLSIDPTTKALAPDSETKLQGAYGGNGNDFLLNDELVEATKIGKPSLLSKDGGVTKDKGSNLKKLGYQSAAYNAKGSYGKGAYAYGYYPPAYQYPRHGYTGSYASGKTNLQYQYLTQQGRSAGNGQSYGGYMDNIYSNYGMCGPYTNGYGYGSYGYDSWKYMPNWYAVNNTYKPRNGYHGYGKENIEGLNEMNRGPRAKGFNSQDGSKVMAVSLKEQRVTETEKLSEDVSLLDPKDYNKIDFPETYTEAKFYVIKSYSEDDIHKSIKYSVWSSTPNGNKKLDASYNEAKQKSDGCPVFLLFSVNTSGQFVGLAEMVGPVDFNKTVEYWQQDKWIGCFPVKWHFVKDIPNSSLRHITLENNENKPVTNSRDTQEVKLEQGIKVIKIFKDHASKTCILDDFEFYENRQKIIQERKSKHLQIKKQTLVANADKGVMSKINLVKPQESTTASEDAAALGVAAEVTKESKVVKETELPVEKNAVATAC
notes: also called MBP-ECT3; source: Escherichia coli, purified recombinant protein
As to B3, the binding result in assay [2] is on record as “binds”.
